The conditions of the data set: Pseudomonas aeruginosa (strain ATCC 15692 / DSM 22644 / CIP 104116 / JCM 14847 / LMG 12228 / 1C / PRS 101 / PAO1); pH 7; 10 °C; GdnHCl; Fluorescence; sodium phosphate 50 mM; reversible: yes; whole UniProt chain shown.

B1: Cytochrome c-551 wild type, P00099 (protein)
chain: MKPYALLSLLATGTLLAQGAWAEDPEVLFKNKGCVACHAIDTKMVGPAYKDVAAKFAGQAGAEAELAQRIKNGSQGVWGPIPMPPNAVSDDEAQTLAKWVLSQK
Turning to B1, the denaturant m value worked out at 3.3 kcal/mol/M, the “denaturant midpoint (higher = more stable)” value came out at 1.8 M and the unfolding free energy is 6.1 kcal/mol.

Values taken from FireProtDB (doi:10.1110/ps.5101).
